Experimental data as given in publication PMC11087797 (2024).

B1: soluble CD94-NKG2C NK cell receptor ectodomains (receptor)
chain 1: KNSFTKLSIEPAFTPGPNIELQKDSDCCSCQEKWVGYRCNCYFISSEQKTWNESRHLCASQKSSLLQLQNTDELDFMSSSQQFYWIGLSYSEEHTAWLWENGSALSQYLFPSFETFNTKNCIAYNPNGNALDESCEDKNRYICKQQLI
chain 2: not shown
B2: soluble CD94-NKG2A NK cell receptor ectodomains (receptor)
chain 1: B1 chain 1
chain 2: not shown

Tests used:
Test in all cases: SPR; peptide …
[1] = target: LCw3(3-11)-HLA-E*01:03
[2] = target: LB7(3-11)-HLA-E*01:03
[3] = target: LA80(3-11)-HLA-E*01:03
[4] = target: LA34(3-11)-HLA-E*01:03
[5] = target: LA1(3-11)-HLA-E*01:03

Binder	Kd [1] [µM]	Kd [2] [µM]	Kd [3] [µM]	Kd [4] [µM]	Kd [5] [µM]
B1	22	25.5	42.8	13.5	11.3
B2	1.5	3.3	2.1	1.8	1.5
